Assay results: patent publication US20250250357A1 (NANJING ZAIMING PHARMACEUTICAL, published 2025)
Residue numbers refer to the chain shown, from its start.

B1: S009-F8-4.5 (antibody, human IgG1, kappa, V domains shown)
VH: QVQLQQPGAELVKPGASVKLSCKASGYTFTIYWMHWVKQRPGQGLEWIGMIHPNSGNTNYNEKFKSKATLTVDKSSSTAYMQLSSLTSEDSAVYYCSLIHWYFDVWGTGTTVTVSS
VL: QIVLTQSPAIMSASPGEKVTMTCSASSSVSYMYWYQQKPGSSPRLLIYDTSNLASGVPVRFSGSGSGTSYSLTISRMEAEDAATYYCQQWSSYPLTFGAGTKLELKR
notes: human-murine chimeric antibody, human IgG1/kappa constant regions
B2: S009-F8-27.1 (antibody, human IgG1, kappa, V domains shown)
VH: EVQLVESGGGLVKPGGSLKLSCAASGFTFSSYAMSWVRQTPEKRLEWVATISDGGNYTYYPDNVKGRFTISRDNAKNNLYLQMSHLKSEDTAMYYCAGDRGYPYAMDSWGQGTSVTVSS
VL: NIMMTQSPSSLAVSAGEKVTMSCKSSQSVLYSSNQKNYLAWYQQKPGQSPKLLIYWASTRESGVPDRFTGSGSGTDFTLTISNVHAEDLAVYYCHQYLSSLTFGAGTKLELKR
notes: as for B1
B3: S009-F8-7.5 (antibody, human IgG1, kappa, V domains shown)
VH: DVQLQESGPGLVKPSQSLSLTCSVTGYSITSGYYWNWIRQFPGNKLEWMAYIRYDGSNNYNPSLKNRISIIRDTSKNQFFLRLNSVTTEDTATYYCAKSYYGMDDWGQGISVTVSS
VL: DIQMTQSPASLSASVGETVTITCRTSGDIHNYLAWYQQKQGKSPQLLVYKAKTLENGVPSRFTGSGSGTQFSLKIDSLQPEDFGTYYCQHFWTTPYTFGGGTKLEIKR
notes: as for B1
B4: S009-F8-18.9 (antibody, human IgG1, kappa, V domains shown)
VH: EFQLQQSGPELVKPGASVKISCKASGYSFTDYNMNWVKQSNGKSLEWIGIINPNYGTTSYNQKFKGRATLTVDQSSSTAYVQLNSLTSEDSAVYYCARGGYDNEAMDYWGQGTSVTVSS
VL: QIVLTQSPAIMSASPGEKVTMTCSASSSVSYMHWYQQKSGTSPKRWIYDTSKLASGVPARFSGSGSGTSYSLTISSMEAEDAATYYCQQWSSNPPTFGAGTKLELKR
notes: as for B1
B5: S009-F8-19.21 (antibody, human IgG1, kappa, V domains shown)
VH: B4 VH with A24T, I50V, S59G, R67K, V81M, N103G, Q111H
VL: B4 VL with S30N, N93Y, A99G, L105I
notes: as for B1
B6: S009-F1.59.1 (antibody, human IgG1, kappa, V domains shown)
VH: EVKLEGSGGGLVQPGGSMMLSCVATGFTFSSYWMNWVRQSPDRGLEWVAEIRLKSNGFAAFYAESVKGRFTISRDDSKSSVYLQMNNLRTEDTGIYYCTYFVHWGQGILVTVSE
VL: DIVLTQSPTSLAVSLGQRATISCRTSESVEYFGTILIQWYQQKPGQPPKLLIFGASNVESGVPARFSGSGSGTDFSLNIHPVEEEDIAMYFCQQNRKVPYTFGGGTTLELKR
notes: as for B1
B7: S009-F1.25.10 (antibody, human IgG1, kappa, V domains shown)
VH: EVQLQQSGPELVKPGASLKISCKASGYSFTDYTMNWVKQSHGKNLEWIGLFNPYNGGISYNQKFKGKATLTVDKSSNTAYMELLSLTSDDSAVYFCARDGRGGFYAMDYWGQGTSVTVSS
VL: DIQMTQTTSSLSASLGDRVTISCRASQDISIYLNWYQQKPDGPVKLLIYYTSRLHSGVPSRFSGSGSGTDFSLTISNLEQEDIATYFCQQGYTLPPWTFGGGTKLEIKR
notes: as for B1
B8: S009-F1.57.1 (antibody, human IgG1, kappa, V domains shown)
VH: EAQLQQSGAVFVKPGASVKLSCTASGFSSKDIFLHWVKQRPEQGLEWIGRIDPASDNTIYDPKFQDRATITSDRSSNTAYLQFSSLTSEDTAVYFCLYFDFWGQGTTLTVSS
VL: DIVMTQATPSISVTPGESVSISCRSSESLLHSNGNTYLYWFLQRPGQSPQLLIYRMSNLASGVPDRFSVSGSGTAFTLRISRVEAEDVGVYYCMQHLEYPLTFGAGTKLELKR
notes: as for B1
B9: S009-F1.62.9 (antibody, human IgG1, kappa, V domains shown)
VH: EVQLQQSGADLVKPGASVKLSCTVFGLNFKDTFMHWVRQRPEQGLEWIGRIDPANDNSIYGPKFQDKATITADTSSNTAYLHLSSLTSEDTAVYYCLYFDNWGHGTTLTVSS
VL: B8 VL with T8A, P9S, I11E, S12P, S26D, E27K, N35H, T36N, Q50H, V69G
notes: as for B1

molecular target: T1, human MSLN-FL-his protein (human, UniProt Q13421 296-580); test: competitive ELISA; row F8-5.15; also: test concentration or dose not given here
T1 construct: made in HEK293E cells, purified on nickel column; also called hMSLN-FL-his; human MSLN full-length protein; not shown: His tag
T1 sequence (Q13421 other isoform, or with tags, fused parts or gaps): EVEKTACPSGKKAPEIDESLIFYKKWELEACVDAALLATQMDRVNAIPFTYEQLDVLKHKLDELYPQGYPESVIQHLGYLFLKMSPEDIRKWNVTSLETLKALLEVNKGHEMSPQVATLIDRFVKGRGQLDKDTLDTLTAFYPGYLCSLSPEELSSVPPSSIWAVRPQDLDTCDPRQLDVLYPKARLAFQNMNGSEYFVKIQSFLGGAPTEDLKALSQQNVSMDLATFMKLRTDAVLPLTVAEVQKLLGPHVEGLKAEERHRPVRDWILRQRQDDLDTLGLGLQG

Binder | competition rate
B1 | 100%
B2 | 99.8%
B3 | 83.3%
B4 | 99.7%
B5 | 99.5%

molecular target: T1, human MSLN-FL-his protein; test: SPR (Biacore), antibody captured on Protein A chip;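 also: flow cell at 25 °C, antigen injected for 240 s at five concentrations from 200 nM downward, dissociation followed up to 600 s, double-referenced, fitted with Langmuir 1:1 model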
Experimental: The flow cell was set at 25° C. The sample block was set at 16° C. Both were pretreated with the running buffer. In each cycle, first, the antibody to be tested was captured using the Protein A chip, and then a single concentration of human MSLN-FL-his protein was injected. […] The association was determined by injecting different concentrations of human MSLN-FL-his in solution for 240 s on end, wherein the flow rate was 30 μL/min, and the protein was diluted in a 1:1 dilution ratio from 200 nM (see detailed results for actual concentrations tested) to obtain 5 concentrations in total. The dissociation phase was monitored for up to 600 s and triggered by switching from the sample solution to the running buffer. The surface was regenerated by washing with 10 mM glycine solution (pH 1.5) at a flow rate of 30 μL/min for 30 s. The difference in bulk refractive index was corrected by subtracting the responses obtained from the goat anti-human Fc surface. Blank injections were also subtracted (=double reference). To calculate the apparent KD and other kinetic parameters, the Langmuir 1:1 model was used.

Binder | Kd | koff | kon
B1 | 0.824 nM | 0.000599 s⁻¹ | 727000 M⁻¹ s⁻¹
B2 | 1.95 nM | 0.000234 s⁻¹ | 120000 M⁻¹ s⁻¹
B3 | 92.6 nM | 0.0215 s⁻¹ | 232000 M⁻¹ s⁻¹
B4 | 3.17 nM | 0.000876 s⁻¹ | 276000 M⁻¹ s⁻¹
B5 | 1.98 nM | 0.00172 s⁻¹ | 871000 M⁻¹ s⁻¹

molecular target: T1, human MSLN-FL-his protein; test: competitive ELISA; row F8-18.9; also: test concentration or dose not given here

Binder | competition rate
B1 | 8.32%
B2 | -2.77%
B3 | 11.2%
B4 | 6.6%
B5 | 6.96%

molecular target: T2, human MSLN protein endogenously expressed on OVCAR3 tumor cells (human, UniProt Q13421 296-598); test: FACS on OVCAR3 cells;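 as to EC50: flow cytometry of chimeric antibody binding to OVCAR3 cells, 2 h on ice, read as cellular mean fluorescence intensity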
T2 construct: whole, on cells; Endogenous target on OVCAR3 cells; kept apart from the recombinant full-length construct; also called mesothelin
T2 sequence (Q13421 other isoform, or with tags, fused parts or gaps): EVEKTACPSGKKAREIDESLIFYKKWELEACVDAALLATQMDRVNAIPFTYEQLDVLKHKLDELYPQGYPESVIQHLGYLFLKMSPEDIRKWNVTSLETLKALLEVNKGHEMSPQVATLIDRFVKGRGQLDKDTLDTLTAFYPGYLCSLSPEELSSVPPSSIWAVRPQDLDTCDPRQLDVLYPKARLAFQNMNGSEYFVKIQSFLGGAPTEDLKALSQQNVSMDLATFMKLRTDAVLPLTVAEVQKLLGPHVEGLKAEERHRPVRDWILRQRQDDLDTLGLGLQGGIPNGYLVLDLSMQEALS
Experimental: (§1) The desired cells were expanded to the logarithmic growth phase in a T-75 cell culture flask. […] After the cells from the previous step were subjected to cell counting, the cell pellet was resuspended to 2×10⁶ cells/mL in a blocking buffer of [PBS+2% (w/w) BSA] and added into a 96-well FACS reaction plate at 50 μL/well. A chimeric antibody (a sample to be tested) was added at 50 μL/well, and the plate was incubated on ice for 2 h. […] After the plate was centrifuged and washed 5 times with a PBST buffer, assay and analysis were performed by FACS (FACS CantoII, purchased from BD). Data analysis was performed by software (Flowjo) to obtain the mean fluorescence intensity (MFI) of the cells.

Binder | Maximum mean fluorescence intensity
B6 | 445
B7 | 429
B8 | 948
B9 | 425

molecular target: T1, human MSLN-FL-his protein; test: competitive ELISA; row F8-15.19; also: test concentration or dose not given here

Binder | competition rate
B1 | 100%
B2 | 99.2%
B3 | -15.7%
B4 | 99.5%
B5 | 99.8%

molecular target: T1, human MSLN-FL-his protein; test: competitive ELISA; row Tab142; also: test concentration or dose not given here

Binder | competition rate
B1 | 97.8%
B2 | 86.2%
B3 | 2.16%
B4 | 85.5%
B5 | 92.2%

molecular target: T3, human MSLN-R3 protein (Met487-Ser606 of NCBI AAH09272.1) expressed on HEK293T-hMSLN-R3 cells (human, UniProt Q13421 487-606); test: FACS on HEK293T-hMSLN-R3 cells
T3 construct: also called Region3
T3 sequence (Q13421 495-614): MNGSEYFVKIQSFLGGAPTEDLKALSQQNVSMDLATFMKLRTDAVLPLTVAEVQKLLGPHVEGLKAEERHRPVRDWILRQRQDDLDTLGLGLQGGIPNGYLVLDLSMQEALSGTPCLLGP
Experimental: as §1

Binder | EC50 | Maximum mean fluorescence intensity
B6 | 0.31 nM | 7070
B7 | 1.44 nM | 6260
B8 | 3.9 nM | 6660
B9 | 0.95 nM | 6930

molecular target: T4, human MSLN protein endogenously expressed on OVCAR3 tumor cells (human, UniProt Q13421 296-598); test: FACS on OVCAR3 cells;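 as to EC50: flow cytometry of chimeric antibody binding to OVCAR3 cells, 2 h on ice, read as cellular mean fluorescence intensity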
T4 construct: whole, on cells; endogenous expression on a tumor cell line; also called human mesothelin
Experimental: as §1

Binder | EC50 | Maximum mean fluorescence intensity
B1 | 4.93 nM | 14000
B2 | 77.9 nM | 7620
B3 | 0.71 nM | 8990
B4 | 24.1 nM | 10800
B5 | 5.13 nM | 13000

molecular target: T1, human MSLN-FL-his protein; test: competitive ELISA; row F8-7.5; also: test concentration or dose not given here

Binder | competition rate
B1 | 23.6%
B2 | -9.43%
B3 | 85.8%
B4 | -116%
B5 | -137%

molecular target: T5, human MSLN full-length protein (NCBI: AAH09272.1) expressed on HEK293T-hMSLN-B8 cells (human, UniProt Q13421 296-598); test: FACS on HEK293T-hMSLN-B8 cells
T5 construct: Whole encoded precursor
T5 sequence (Q13421 other isoform, or with tags, fused parts or gaps limits assumed): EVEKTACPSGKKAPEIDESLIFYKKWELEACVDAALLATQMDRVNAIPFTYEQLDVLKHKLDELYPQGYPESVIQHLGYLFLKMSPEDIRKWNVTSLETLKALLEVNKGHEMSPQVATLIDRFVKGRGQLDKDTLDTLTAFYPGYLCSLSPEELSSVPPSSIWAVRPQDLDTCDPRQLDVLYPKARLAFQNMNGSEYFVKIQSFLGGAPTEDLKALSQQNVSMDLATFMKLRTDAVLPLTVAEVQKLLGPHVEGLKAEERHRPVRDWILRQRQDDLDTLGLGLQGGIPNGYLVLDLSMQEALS
Experimental: as §1

Binder | Maximum mean fluorescence intensity
B6 | 32800
B7 | 41900
B8 | 8750
B9 | 9550

molecular target: T1, human MSLN-FL-his protein; test: competitive ELISA; row F8-12.13; also: test concentration or dose not given here

Binder | competition rate
B1 | 98.9%
B2 | 98.7%
B3 | -23.2%
B4 | 97.2%
B5 | 97.3%

molecular target: T1, human MSLN-FL-his protein; test: competitive ELISA; row F8-31.22; also: test concentration or dose not given here

Binder | competition rate
B1 | 89.7%
B2 | -13.1%
B3 | -71.5%
B4 | 98%
B5 | 98.5%

molecular target: T1, human MSLN-FL-his protein; test: competitive ELISA; row F8-27.1; also: test concentration or dose not given here

Binder | competition rate
B1 | 99.8%
B2 | 95.3%
B3 | 3.35%
B4 | 96.8%
B5 | 98.4%

molecular target: T6, human MSLN-R3 protein expressed on HEK293T cells (HEK293T-hMSLN-R3) (human, UniProt Q13421 487-606); test: FACS on HEK293T-hMSLN-R3 cells;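 also: chimeric antibodies incubated with cells on ice for 2 h, binding read by flow cytometry as mean fluorescence intensity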
T6 construct: C-terminal limit uncertain
T6 sequence (Q13421 495-614): as the sequence (Q13421 495-614) above

Binder | Maximum mean fluorescence intensity | binding result
B1 | 192 | no binding
B2 | 120 | no binding
B3 | 279 | no binding
B4 | 131 | no binding
B5 | 98 | no binding

molecular target: T1, human MSLN-FL-his protein; test: competitive ELISA; row F8-13.8; also: test concentration or dose not given here

Binder | competition rate
B1 | 95.8%
B2 | 74.6%
B3 | 3.15%
B4 | 77.5%
B5 | 82%

molecular target: T1, human MSLN-FL-his protein; test: competitive ELISA; row Tab021; also: test concentration or dose not given here

Binder | competition rate
B1 | 9.76%
B2 | 12.2%
B3 | 14.2%
B4 | 2.63%
B5 | 4.93%

molecular target: T1, human MSLN-FL-his protein; test: competitive ELISA; row F8-4.5; also: test concentration or dose not given here

Binder | competition rate
B1 | 97.5%
B2 | 92%
B3 | 3.24%
B4 | 83.3%
B5 | 89.7%

molecular target: T1, human MSLN-FL-his protein; test: competitive ELISA; row F8-19.21; also: test concentration or dose not given here

Binder | competition rate
B1 | 98.9%
B2 | 90.2%
B3 | 14.7%
B4 | 91.3%
B5 | 95.4%
